For one substance, binding sites/cell (binding sites/cell) results are on record in patent publication US20040037830A1.

The target of the experiment is IL-8 receptors on human neutrophils. In words: 125I-IL-8 competition with unlabelled IL-8, Scatchard analysis, human neutrophils.

Substance “human 72 amino acid IL-8 (interleukin-8), recombinant, made in E. coli (from UniProt P10145 28-99) (ligand)” yielded a binding sites/cell (binding sites/cell) of 31000.
